Laboratory results from US20160207960A1 (FEINSTEIN INSTITUTE FOR MEDICAL RESEARCH, published 2016).

B1: rhMD2 (Accession #BAA78717; Glu17-Asn160) with 10-His tag at the C-terminus (receptor, human)
chain: EAQKQYWVCNSSDASISYTYCDKMQYPISINVNPCIELKRSKGLLHIFYIPRRDLKQLYFNLYITVNTMNLPKRKEVICRGSDDDYSFCRALKGETVNTTISFSFKGIKFSKGKYKCVVEAISGSPEEMLFCLEFVILHQPNSNHHHHHHHHHH
notes: range 17-160; From R&D Systems, expressed in E. coli; also called TLR4 co-receptor MD2
B2: Recombinant human (rh) CIRP (Accession #NP_001271; full length) with C-terminal DDK tag (ligand)
chain: MASDEGKLFVGGLSFDTNEQSLEQVFSKYGQISEVVVVKDRETQRSRGFGFVTFENIDDAKDAMMAMNGKSVDGRQIRVDQAGKSSDNRSRGYRGGSAGGRGFFRGGRGRGRGFSRGGGDRGYGGNRFESRSGGYGGSRDYYSSRSQSGGYSDRSSGGSYRDSYDSYATHNE
notes: Bought from Origene, expressed in HEK293 cells; also called recombinant human CIRP; human CIRP; not shown: C-terminal DDK tag

Experiments:
[1] = molecular target: B1; test: SPR, 15-mer oligopeptide as analyte over immobilized rhMD2
Protocol: (§1) Analysis of protein-protein and peptide-protein interactions were conducted using the BIAcore T200 instrument (GE Healthcare). Binding reactions were performed in 1×PBS buffer containing 0.01% Tween-20 (pH 7.4). The CM5 dextran chip (flow cell-2) was first activated by injection with 89 μl of 0.1 M […] and 0.1 M N-hydroxysuccinimide. An aliquot of 200 μl of 5 μg/ml of the ligand diluted in 10 mM sodium acetate (pH 4.5) was injected into flow cell-2 of the CM5 chip for immobilization. Next, 135 μl of 1 M ethanolamine (pH 8.2) was then injected to block the remaining active sites. The flow cell-1 without coating with the ligand was used as a control to evaluate nonspecific binding. The binding analyses were performed at flow rate of 30 μl/min at 25° C. […] The signal from the blank channel (flow cell-1) was subtracted from the channel (flow-cell 2) coated with the ligand. Data were analyzed by the BIAcore T200 Evaluation Software. For all samples, a blank injection with buffer alone was subtracted from the resulting reaction surface data. Data were globally fitted to the Lagmuir model for a 1:1 binding.
(§2) Surface plasmon resonance (SPR) analysis was utilized to determine the physical interaction and binding affinity between rhCIRP and pattern-recognition receptors and MD2.

[2] = molecular target: B2; test: SPR, BIAcore T200, kinetic analysis, 1:1 Langmuir fit; target rhMD2
Protocol: as §1, §2

[3] = molecular target: T1, rhTLR4 (Accession #O00206; Glu24-Lys631) with 10-His tag at the C-terminus (human, UniProt O00206 24-631); test: SPR, BIAcore T200, positive control; rhMD2 to rhTLR4, positive control
T1 construct: range 24-631; From R&D Systems, expressed in mouse myeloma NS0 cells
Protocol: as §1, §2

[4] = molecular target: T2, rhTLR4/MD2 complex (rhTLR4 Glu24-Lys631 co-expressed with rhMD2 Glu17-Asn160, His tag at each protein) (human, UniProt O00206 24-631; Q9Y6Y9 17-160); test: SPR, BIAcore T200, kinetic analysis, 1:1 Langmuir fit; target rhTLR4/MD2 complex
T2 construct: range 24-631;range 17-160; Purified from NS0 cells co-expressing both proteins; R&D Systems; not shown: His tag; for the complex only 'His tag at each protein' is said (a general sentence gives a C-terminal 10-His tag for rh)
Protocol: as §1, §2

[5] = molecular target: T3, rhRAGE (Accession #Q15109; Ala23-Ala344) with C-terminal 6-His tag (human, UniProt Q15109 23-344); test: SPR (BIAcore T200), analyte rhRAGE over immobilized rhCIRP; apparent KD from kinetic analysis
T3 construct: range 23-344; From Biovision, expressed in HEK293 cells
Protocol: as §1, §2

[6] = molecular target: T4, rhTLR2 (Accession #NP_003255; Glu21-Leu590) with 10-His tag at the C-terminus (human, UniProt O60603 21-590); test: SPR (BIAcore T200), analyte rhTLR2 over immobilized rhCIRP; apparent KD from kinetic analysis
T4 construct: range 21-590; From R&D Systems, expressed in mouse myeloma NS0 cells
Protocol: as §1, §2

[7] = molecular target: T1, rhTLR4 (Accession #O00206; …); test: SPR, BIAcore T200, kinetic analysis, 1:1 Langmuir fit; target rhTLR4
Protocol: as §1, §2

T1 sequence (O00206 other isoform, or with tags, fused parts or gaps limits assumed): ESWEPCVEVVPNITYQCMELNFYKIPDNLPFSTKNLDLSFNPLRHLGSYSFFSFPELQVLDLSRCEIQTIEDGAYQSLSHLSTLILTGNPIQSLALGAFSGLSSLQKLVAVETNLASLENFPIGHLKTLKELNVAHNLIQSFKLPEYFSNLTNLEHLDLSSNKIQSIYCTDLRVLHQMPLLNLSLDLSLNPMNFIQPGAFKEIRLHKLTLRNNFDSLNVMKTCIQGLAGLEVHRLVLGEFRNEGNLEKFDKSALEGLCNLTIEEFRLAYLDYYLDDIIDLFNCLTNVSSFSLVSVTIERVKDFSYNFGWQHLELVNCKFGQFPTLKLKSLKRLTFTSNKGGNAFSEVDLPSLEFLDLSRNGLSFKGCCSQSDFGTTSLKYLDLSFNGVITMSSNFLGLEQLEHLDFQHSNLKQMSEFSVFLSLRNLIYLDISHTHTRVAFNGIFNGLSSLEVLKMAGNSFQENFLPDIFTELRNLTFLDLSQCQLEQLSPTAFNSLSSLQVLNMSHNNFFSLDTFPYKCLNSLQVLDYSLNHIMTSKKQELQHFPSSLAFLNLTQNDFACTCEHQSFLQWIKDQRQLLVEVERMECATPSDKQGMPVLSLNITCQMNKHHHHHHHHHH
T4 sequence (O60603 other isoform, or with tags, fused parts or gaps limits assumed): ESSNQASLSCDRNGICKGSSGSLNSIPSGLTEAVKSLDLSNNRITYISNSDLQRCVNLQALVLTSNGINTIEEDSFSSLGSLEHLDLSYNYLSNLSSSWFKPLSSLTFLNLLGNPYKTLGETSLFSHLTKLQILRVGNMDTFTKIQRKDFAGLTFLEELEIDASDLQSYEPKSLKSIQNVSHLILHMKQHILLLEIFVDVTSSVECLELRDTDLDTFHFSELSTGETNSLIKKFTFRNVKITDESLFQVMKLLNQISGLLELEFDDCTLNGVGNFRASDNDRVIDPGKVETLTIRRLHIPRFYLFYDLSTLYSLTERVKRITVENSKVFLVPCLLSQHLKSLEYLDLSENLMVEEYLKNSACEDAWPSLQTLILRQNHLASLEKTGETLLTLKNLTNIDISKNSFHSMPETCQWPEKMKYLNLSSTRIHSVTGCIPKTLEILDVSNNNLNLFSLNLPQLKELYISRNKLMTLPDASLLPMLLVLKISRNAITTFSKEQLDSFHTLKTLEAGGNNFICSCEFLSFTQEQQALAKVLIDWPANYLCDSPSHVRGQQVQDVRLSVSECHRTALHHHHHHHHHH
T2 sequence (O00206 24-631 limits assumed, form in doubt, one chain of several): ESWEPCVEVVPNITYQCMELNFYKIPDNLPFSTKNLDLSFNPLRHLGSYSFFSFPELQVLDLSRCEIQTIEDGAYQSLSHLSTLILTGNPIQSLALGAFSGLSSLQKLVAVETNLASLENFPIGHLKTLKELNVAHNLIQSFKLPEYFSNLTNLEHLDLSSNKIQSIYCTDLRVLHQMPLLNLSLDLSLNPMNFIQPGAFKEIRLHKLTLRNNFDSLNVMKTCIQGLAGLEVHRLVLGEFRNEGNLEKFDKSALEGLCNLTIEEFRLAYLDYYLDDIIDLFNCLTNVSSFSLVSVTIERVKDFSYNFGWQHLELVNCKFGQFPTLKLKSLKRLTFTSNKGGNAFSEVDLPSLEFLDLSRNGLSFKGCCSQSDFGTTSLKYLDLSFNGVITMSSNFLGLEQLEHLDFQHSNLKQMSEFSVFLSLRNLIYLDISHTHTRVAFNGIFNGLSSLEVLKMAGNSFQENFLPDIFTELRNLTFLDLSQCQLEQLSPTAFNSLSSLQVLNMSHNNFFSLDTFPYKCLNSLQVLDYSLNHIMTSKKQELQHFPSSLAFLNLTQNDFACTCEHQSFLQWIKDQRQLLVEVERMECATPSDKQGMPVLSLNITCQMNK
T3 sequence (Q15109 other isoform, or with tags, fused parts or gaps limits assumed): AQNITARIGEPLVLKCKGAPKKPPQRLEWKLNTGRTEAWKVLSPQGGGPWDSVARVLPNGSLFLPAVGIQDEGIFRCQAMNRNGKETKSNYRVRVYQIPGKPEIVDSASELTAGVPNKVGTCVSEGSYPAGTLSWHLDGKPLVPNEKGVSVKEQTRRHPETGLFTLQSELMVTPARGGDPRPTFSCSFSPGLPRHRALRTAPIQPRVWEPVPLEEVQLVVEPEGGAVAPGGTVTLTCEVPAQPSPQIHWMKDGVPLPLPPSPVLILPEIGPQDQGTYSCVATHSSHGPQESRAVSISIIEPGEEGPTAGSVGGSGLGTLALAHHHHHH

RGFFRGGRGRGRGFS [human CIRP 15-mer oligopeptide aa 101-115]
Kd [1]: 1510 nM

GRGFSRGGGDRGYGG [CIRP-derived oligopeptide C23 (human CIRP aa 111-125)]
Kd [1]: 29.7 nM

B1
Kd [2]: 302 nM | Kd [3]: 53.7 nM

GGRGRGRGFSRGGGD (Synthetic, Genscript) [CIRP-derived oligopeptide C22 (human CIRP aa 106-120)]
Kd [1]: 129 nM

B2
Kd [4]: 239 nM | Kd [5]: 33.1 nM | Kd [6]: 258 nM | Kd [7]: 617 nM
